The results in this text go back to the supplement of paper PMC7877785.

The data set is described as follows: self-splicing fitness, log relative to wild type (ln ratio); higher = more splicing; Tetrahymena group I intron in knt gene, E. coli kanamycin selection, DiMSum; sequences stand for … in CUCUCU…GGAGGGAAAAGUUAUCAGGCAUGCACCUGGUAGCUAGUCUUUAAACCAAUAGAUUGCAUCGGUUUAAAAGGCAAGACCGUCAAAUUGCGGGAAAGGGGUCAACAGCCGUUCAGUACCAAGUCUCAGGGGAAACUUUGAGAUGGCCUUGCAAAGGGUAUGGUAAUAAGCUGACGGACAUGGUCCUAACCACGCAGCCAAGUCCUAAGUCAACAGAUCUUCUGUUGAUAUGGAUGCAGUUCACAGACUAAAUGUCGGUCGGGGAAGAUGUAUUCUUCUCAUAAGAUAUAGUCGGACCUCUCCUUAAUGGGAGCUAGCGGAUGAAGUGAUGCAACACUGGAGCCGCUGGGAACUAAUUUGUAUGCGAAAGUAUAUUGAUUAGUUUUGGAGUACUCGUGGUCG
In short, it runs like this: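 DiMSum derived fitness as the error-weighted combination of fold changes across replicates, kanamycin versus no kanamycin, normalised to wild type. E. coli BL21(DE3) held the library, which randomised all eight P1ex-region intron nucleotides within the knt kanamycin-resistance gene on pET-22b(+). Six replicate transformations grew overnight at 37°C or 30°C on LB agar with or without 25 μg/mL kanamycin, also containing 100 μg/mL carbenicillin, 50 μM IPTG and 0.2% rhamnose, and pooled colonies were amplicon-sequenced on an Illumina HiSeq 2500.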

± gives the uncertainty stated by the source.

On to AUUAAGCAAUAUUACGCAAU, for which the “self-splicing fitness (ln)” value by setting is: (30 °C) -1.74 ± 0.13; (37 °C) -2.34 ± 0.23.

As for GGAUAGCAAUAUUACGUAAC, the “self-splicing fitness (ln)” value runs as follows: (30 °C) -1.66 ± 0.15; (37 °C) -0.538 ± 0.16.

As for GAAGAGCAAUAUUACGUGUU, the “self-splicing fitness (ln)” value (30 °C) was -4.18 ± 0.23 and the “self-splicing fitness (ln)” value (37 °C) is -2.12 ± 0.18. Take AUGAAGCAAUAUUACGGGAC: the “self-splicing fitness (ln)” value is -2.09 ± 0.32 (30 °C) and -1.65 ± 0.43 (37 °C). In the same order, the values of GAUAAGCAAUAUUACGCGCU are -1.44 ± 0.14 and -1.47 ± 0.15. In the same order, the values of AGAUAGCAAUAUUACGUGCA are -0.725 ± 0.13 and -0.616 ± 0.15. Consider AGCUAGCAAUAUUACGAAUG, for which the “self-splicing fitness (ln)” value is -2.09 ± 0.17 (30 °C) and -2.27 ± 0.29 (37 °C).

For the sequence CAUCAGCAAUAUUACGUUGA, the “self-splicing fitness (ln)” value by setting is: (30 °C) -3 ± 0.15; (37 °C) -3.46 ± 0.24.

As to AUUGAGCAAUAUUACGGAGG, the “self-splicing fitness (ln)” value (30 °C) is -2.97 ± 0.22. For CCUGAGCAAUAUUACGCUCC, where the note is “37 °C”, the “self-splicing fitness (ln)” value is -3.8 ± 0.33. As to CGAGAGCAAUAUUACGCGUC, the “self-splicing fitness (ln)” value (30 °C) is -3.01 ± 0.36 and the “self-splicing fitness (ln)” value (37 °C) is -2.64 ± 0.42.

As for AUGGAGCAAUAUUACGUCCU, the “self-splicing fitness (ln)” value is -0.886 ± 0.24 (30 °C) and -1.35 ± 0.29 (37 °C). In the same order, the values of UAUUAGCAAUAUUACGCUAG are -2.36 ± 0.19 and -0.845 ± 0.15. In the same order, the values of GAGAAGCAAUAUUACGCUGG are -2.87 ± 0.41 and -1.64 ± 0.41. Consider GAGUAGCAAUAUUACGGAGG, for which the “self-splicing fitness (ln)” value is -3.45 ± 0.36 (30 °C) and -0.837 ± 0.36 (37 °C). In the same order, the values of ACCAAGCAAUAUUACGUCAU are -3.16 ± 0.096 and -1.71 ± 0.09. In the same order, the values of CGGUAGCAAUAUUACGAACA are -0.899 ± 0.16 and -0.395 ± 0.2.

On to AACUAGCAAUAUUACGACAA, for which the “self-splicing fitness (ln)” value (30 °C) was -0.829 ± 0.064 and the “self-splicing fitness (ln)” value (37 °C) was -0.603 ± 0.066.

Regarding CCAAAGCAAUAUUACGAGCC, the “self-splicing fitness (ln)” value by setting is: (30 °C) -3.2 ± 0.21; (37 °C) -2.07 ± 0.19. In the same order, the values of GCCUAGCAAUAUUACGGCAA are -2.64 ± 0.15 and -1.75 ± 0.14.

As to GAGAAGCAAUAUUACGUUAC, the “self-splicing fitness (ln)” value runs as follows: (30 °C) -3.39 ± 0.27; (37 °C) -3.05 ± 0.35. In the same order, the values of AAAGAGCAAUAUUACGCAGU are -3.46 ± 0.2 and -1.71 ± 0.17. In the same order, the values of UAUCAGCAAUAUUACGGAGG are -1.18 ± 0.13 and -0.979 ± 0.14. In the same order, the values of UCGCAGCAAUAUUACGGAGG are -3.71 ± 0.18 and -2.05 ± 0.15. Take ACCCAGCAAUAUUACGCUUA: the “self-splicing fitness (ln)” value runs as follows: (30 °C) -0.429 ± 0.07; (37 °C) -0.188 ± 0.078. In the same order, the values of CCUAAGCAAUAUUACGAGUG are -0.812 ± 0.045 and -0.282 ± 0.073. In the same order, the values of GAUUAGCAAUAUUACGUCGA are -1.83 ± 0.12 and -0.819 ± 0.11. CAUGAGCAAUAUUACGUUUA: the “self-splicing fitness (ln)” value is -3.69 ± 0.21 (30 °C) and -2.84 ± 0.2 (37 °C). In the same order, the values of GUCAAGCAAUAUUACGAGGA are -3.75 ± 0.47 and -4.45 ± 0.45. In the case of CCAUAGCAAUAUUACGACGU, the “self-splicing fitness (ln)” value reads like this: (30 °C) -3.3 ± 0.35; (37 °C) -2.13 ± 0.23. In the same order, the values of UAGCAGCAAUAUUACGUUGG are -2.36 ± 0.089 and -2.22 ± 0.12. In the same order, the values of UCUCAGCAAUAUUACGGACA are -0.71 ± 0.099 and -0.369 ± 0.1.

Take CGCCAGCAAUAUUACGAUAU: the “self-splicing fitness (ln)” value is, setting by setting: (30 °C) -3.92 ± 0.22; (37 °C) -2.14 ± 0.2. In the same order, the values of CAAGAGCAAUAUUACGUAAA are -4.16 ± 0.29 and -3.01 ± 0.26. In the same order, the values of CCCAAGCAAUAUUACGUGUC are -4.25 ± 0.26 and -2.72 ± 0.18.

As for CCAUAGCAAUAUUACGCUCA, the “self-splicing fitness (ln)” value (30 °C) is -3.11 ± 0.18 and the “self-splicing fitness (ln)” value (37 °C) is -2.16 ± 0.25. With CCGAAGCAAUAUUACGUCUU, the “self-splicing fitness (ln)” value was -3.58 ± 0.15 (30 °C) and -2.98 ± 0.21 (37 °C). In the same order, the values of UGUAAGCAAUAUUACGGUCA are -0.349 ± 0.08 and 0.113 ± 0.12. In the same order, the values of AAAUAGCAAUAUUACGAGCU are -1.37 ± 0.12 and -0.386 ± 0.13. In the same order, the values of AGACAGCAAUAUUACGGCUG are -2.93 ± 0.14 and -2.34 ± 0.19.

AGGCAGCAAUAUUACGAGAA: the “self-splicing fitness (ln)” value (30 °C) was -3.3 ± 0.41 and the “self-splicing fitness (ln)” value (37 °C) is -2.09 ± 0.36. For the sequence CCACAGCAAUAUUACGCCCU, the “self-splicing fitness (ln)” value is -2.75 ± 0.25 (30 °C) and -2.08 ± 0.23 (37 °C). In the same order, the values of AGUUAGCAAUAUUACGUAAC are -4.54 ± 0.46 and -2.21 ± 0.24. In the same order, the values of CCAAAGCAAUAUUACGGCUG are -0.987 ± 0.069 and -0.917 ± 0.088. With GAGCAGCAAUAUUACGUUAC, the “self-splicing fitness (ln)” value is, setting by setting: (30 °C) -2.55 ± 0.14; (37 °C) -1.75 ± 0.13. Consider GGUGAGCAAUAUUACGAGCG, for which the “self-splicing fitness (ln)” value (30 °C) was -0.194 ± 0.11 and the “self-splicing fitness (ln)” value (37 °C) was determined as 0.303 ± 0.14. In the same order, the values of AGCGAGCAAUAUUACGGACA are -2.53 ± 0.37 and -2.94 ± 0.34.

As to AGGAAGCAAUAUUACGGGGA, the “self-splicing fitness (ln)” value was -2.97 ± 0.2 (30 °C) and -2.38 ± 0.16 (37 °C). In the same order, the values of AUUCAGCAAUAUUACGGCCC are -0.851 ± 0.16 and -0.422 ± 0.21. In the same order, the values of AUCAAGCAAUAUUACGGAGC are -2.98 ± 0.28 and -1.92 ± 0.25. In the same order, the values of CUCUAGCAAUAUUACGCGGA are -3.1 ± 0.4 and -1.9 ± 0.34.

In the case of ACGUAGCAAUAUUACGGAAG, the “self-splicing fitness (ln)” value (30 °C) was -3.32 ± 0.3 and the “self-splicing fitness (ln)” value (37 °C) is -1.91 ± 0.28. As to CAGGAGCAAUAUUACGCUAG, the “self-splicing fitness (ln)” value runs as follows: (30 °C) -1.28 ± 0.23; (37 °C) -1.1 ± 0.27. In the same order, the values of UAGAAGCAAUAUUACGUGGC are -3.12 ± 0.21 and -3.09 ± 0.25. In the same order, the values of UAUGAGCAAUAUUACGCGGC are -4.02 ± 0.29 and -1.8 ± 0.25. In the same order, the values of GUUGAGCAAUAUUACGGUUC are -3.63 ± 0.4 and -1.58 ± 0.26.

Consider CGAGAGCAAUAUUACGUUAA, for which the “self-splicing fitness (ln)” value (30 °C) was -2.26 ± 0.22. Regarding CCCCAGCAAUAUUACGUGCC, the “self-splicing fitness (ln)” value is -4.13 ± 0.27 (30 °C) and -2.57 ± 0.24 (37 °C). On to AAACAGCAAUAUUACGUAGU, for which the “self-splicing fitness (ln)” value is -1.64 ± 0.054 (30 °C) and -1.62 ± 0.077 (37 °C). In the same order, the values of UAAGAGCAAUAUUACGAUUU are -2.44 ± 0.17 and -0.0704 ± 0.12. For the sequence CCCGAGCAAUAUUACGAAGC, under “30 °C”, the “self-splicing fitness (ln)” value was -3.12 ± 0.26.
